From PMC4362353

Biological target: recombinant adeno-associated virus-6 vector particle (rAAV6 capsid) (adeno-associated virus 6)
Assay: co-sedimentation

B1: secreted human Galectin 3-binding protein from HEK293 culture medium (natural protein)
chain: VNDGDMRLADGGATNQGRVEIFYRGQWGTVCDNLWDLTDASVVCRALGFENATQALGRAAFGQGSGPIMLDEVQCTGTEASLADCKSLGWLKSNCRHERDAGVVCTNETRSTHTLDLSRELSEALGQIFDSQRGCDLSISVNVQGEDALGFCGHTVILTANLEAQALWKEPGSNVTMSVDAECVPMVRDLLRYFYSRRIDITLSSVKCFHKLASAYGARQLQGYCASLFAILLPQDPSFQMPLDLYAYAVATGDALLEKLCLQFLAWNFEALTQAEAWPSVPTDLLQLLLPRSDLAVPSELALLKAVDTWSWGERASHEEVEGLVEKIRFPMMLPEELFELQFNLSLYWSHEALFQKKTLQALEFHTVPFQLLARYKGLNLTEDTYKPRIYTSPTWSAFVTDSSWSARKSQLVYQSRRGPLVKYSSDYFQAPSDYRYYPYQSFQTPQHPSFLFQDKRVSWSLVYLPTIQSCWNYGFSCSSDELPVLGLTKSGGSDRTIAYENKALMLCEGLFVADVTDFEGWKAAIPSALDTNSSKSTSSFPCPAGHFNGFRTVIRPFYLTNSSGVD
  percent of rAAV6 in the pellet fraction (2,000 g, 10 minutes): 70%
  percent of rAAV6 in the precipitate (10,000 g, 30 minutes): 90%
